Results from paper doi:10.1101/049148.

Legend:
[1] = target: Heh2-VN (budding yeast (endogenously tagged)) (UniProt Q03281); assay: split reporter
[2] = target: Heh1-VN (budding yeast (endogenously tagged)) (UniProt Q03707); assay: split reporter
UniProt Q03707, sequence (Q03707 whole entry): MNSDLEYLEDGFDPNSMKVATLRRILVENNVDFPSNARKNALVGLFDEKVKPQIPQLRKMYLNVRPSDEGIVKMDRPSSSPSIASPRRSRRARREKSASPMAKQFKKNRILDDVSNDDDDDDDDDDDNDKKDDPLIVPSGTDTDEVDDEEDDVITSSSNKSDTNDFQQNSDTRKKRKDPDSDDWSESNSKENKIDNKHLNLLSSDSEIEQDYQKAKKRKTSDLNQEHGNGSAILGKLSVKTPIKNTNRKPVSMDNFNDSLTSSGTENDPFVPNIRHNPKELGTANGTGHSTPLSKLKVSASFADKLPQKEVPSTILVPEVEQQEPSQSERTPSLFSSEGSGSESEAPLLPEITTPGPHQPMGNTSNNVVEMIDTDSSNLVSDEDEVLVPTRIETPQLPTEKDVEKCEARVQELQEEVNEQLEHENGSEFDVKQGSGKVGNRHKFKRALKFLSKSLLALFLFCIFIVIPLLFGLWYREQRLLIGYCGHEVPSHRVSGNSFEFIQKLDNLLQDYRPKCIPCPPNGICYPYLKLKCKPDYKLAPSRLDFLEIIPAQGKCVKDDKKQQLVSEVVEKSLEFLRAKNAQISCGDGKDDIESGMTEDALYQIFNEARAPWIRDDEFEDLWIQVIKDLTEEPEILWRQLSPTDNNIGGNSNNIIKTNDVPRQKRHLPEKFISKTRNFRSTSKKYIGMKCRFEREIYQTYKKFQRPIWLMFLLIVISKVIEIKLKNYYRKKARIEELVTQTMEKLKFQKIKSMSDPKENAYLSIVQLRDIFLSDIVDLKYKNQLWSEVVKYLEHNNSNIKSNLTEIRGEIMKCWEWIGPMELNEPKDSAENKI

UniProt Q03281, sequence (Q03281 whole entry): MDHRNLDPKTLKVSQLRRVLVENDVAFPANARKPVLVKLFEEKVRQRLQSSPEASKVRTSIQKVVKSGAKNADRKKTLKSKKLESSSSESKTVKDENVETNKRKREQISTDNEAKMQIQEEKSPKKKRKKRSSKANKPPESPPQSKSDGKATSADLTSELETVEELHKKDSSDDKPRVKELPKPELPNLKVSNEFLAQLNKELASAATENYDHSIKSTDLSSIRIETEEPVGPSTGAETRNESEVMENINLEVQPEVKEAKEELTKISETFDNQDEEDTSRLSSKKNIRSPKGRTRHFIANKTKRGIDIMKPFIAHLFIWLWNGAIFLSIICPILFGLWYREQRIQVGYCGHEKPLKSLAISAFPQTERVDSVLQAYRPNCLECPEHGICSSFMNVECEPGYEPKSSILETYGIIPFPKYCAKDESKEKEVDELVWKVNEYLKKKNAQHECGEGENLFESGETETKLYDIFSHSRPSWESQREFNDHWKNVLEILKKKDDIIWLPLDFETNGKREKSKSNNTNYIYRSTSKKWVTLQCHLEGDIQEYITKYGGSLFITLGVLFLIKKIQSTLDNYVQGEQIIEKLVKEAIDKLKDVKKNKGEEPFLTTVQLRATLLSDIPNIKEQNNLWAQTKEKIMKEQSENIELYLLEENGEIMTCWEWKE

In the case of Chm7-VC (natural protein), the percent of cells with a BiFC focus [1] is reported as 3% and the percent of cells with a BiFC focus [2] is reported as 28%.
